How the values were obtained:
[1] = biological target: T1, 人白介素-33 (human interleukin-33, recombinant) (human, UniProt O95760 112-270); experiment: cell-based or functional assay
T1 sequence: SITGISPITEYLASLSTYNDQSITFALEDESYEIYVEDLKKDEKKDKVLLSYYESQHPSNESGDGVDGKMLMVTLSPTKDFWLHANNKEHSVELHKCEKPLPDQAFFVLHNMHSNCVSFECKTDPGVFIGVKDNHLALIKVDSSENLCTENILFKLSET

[2] = biological target: T2, 天然人白介素-33 (natural human interleukin-33 from HFL-1 cell lysate) (human, UniProt O95760 1-270, limits assumed); experiment: cell-based or functional assay
T2 sequence (looked up): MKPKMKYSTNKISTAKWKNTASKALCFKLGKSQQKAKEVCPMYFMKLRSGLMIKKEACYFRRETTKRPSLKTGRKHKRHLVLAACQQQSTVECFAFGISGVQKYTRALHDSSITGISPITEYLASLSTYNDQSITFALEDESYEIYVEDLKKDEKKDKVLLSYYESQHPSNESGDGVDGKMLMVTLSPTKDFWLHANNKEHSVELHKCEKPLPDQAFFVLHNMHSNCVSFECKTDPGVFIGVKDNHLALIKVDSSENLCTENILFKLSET

中和人白介素-33诱导人全血释放IFN-γ, IC50 [1]: 16 ng/mL
中和人白介素-33诱导的KU812细胞释放IL-5 (IL-5 ELISA), IC50 [1]: 5.87 ng/mL
中和重组人白介素-33诱导HEK Blue IL-33细胞中NF-κB/AP-1信号转导 (SEAP, OD630nm), IC50 [1]: 6.67 ng/mL
中和天然人白介素-33诱导HEK Blue IL-33细胞中NF-κB/AP-1信号转导 (SEAP, OD630nm), IC50 [2]: 3.91 ng/mL
B1: QX007N(HZD78-70) (antibody, V domains shown)
VH: EVQLVESGGGLVQPGGSLRLSCAASGFSLSSYHMIWVRQAPGKGLEWVGVIYPNSNIYYATWAKGRFTISRDNSKNTLYLQMNSLRAEDTAVYYCARTIYVHVYSALSIWGQGTLVTVSS
VL: AFQMTQSPSSVSASVGDRVTITCQASESVLNEVSWYQQKPGKAPKLLIYFASKLASGVPSRFSGSGSGTDFTLTISSLQPEDFATYYCQQDWSMDNIDNAFGGGTKVEIKR

— patent CN114014929A (JIANGSU QYUNS THERAPEUTICS CO LTD, dated 2022)
